# Laboratory results reported in PMC4215650 (Nature, 2014).
# B1: Ring1B(2-116), as it stands in the crystal (domain or fragment)
# chain: SQAVQTNGTQPLSKTWELSLYELQRTPQEAITDGLEIVVSPRSLHSELMCPICLDMLKNTMTTKECLHRFCADCIITALRSGNKECPTCRKKLVSKRSLRPDPNFDALISKIYPS
# B2: Bmi1(2-109), as it stands in the crystal (domain or fragment)
# chain: HRTTRIKITELNPHLMCVLCGGYFIDATTIIECLHSFCKTCIVRYLETSKYCPICDVQVHKTRPLLNIRSDKTLQDIVYKLVPGLFKNEMKRRRDFYAAHPSADAANG
# What was measured:
# Experiment in all cases: crystal structure
# [1] = target: histone H2B, Xenopus, in the nucleosome core particle (Xenopus, UniProt P02281 5-126)
# [2] = target: B1
# [3] = target: histone H4, Xenopus, in the nucleosome core particle (Xenopus, UniProt P62799 2-103)
binding result [1],binding result [2],binding result [3],Binder
binds,–,–,B1
binds,binds,binds,B2
